Assay results reported in patent publication US11999782B2, “Therapeutic agents for the treatment of diseases associated with undesired cell proliferation” (Fundació Privada Institutció Catalana de Recerca I Estudis …, priority 2009, dated 2024).

B1: TGFβ3: TGFβ3 (R&D Systems), member of the TGFβ family (protein, UniProt P10600 301-412, looked up)
Transforming growth factor …: ALDTNYCFRNLEENCCVRPLYIDFRQDLGWKWVHEPKGYYANFCSGPCPYLRSADTTHSTVLGLYNTLNPEASASPCCVPQDLEPLTILYYVGRTPKVEQLSNMVVKSCKCS
B2: TGFβ2: TGFβ2 (R&D Systems), member of the TGFβ family (protein, UniProt P61812 303-414, looked up)
Transforming growth factor …: ALDAAYCFRNVQDNCCLRPLYIDFKRDLGWKWIHEPKGYNANFCAGACPYLWSSDTQHSRVLSLYNTINPEASASPCCVSQDLEPLTILYYIGKTPKIEQLSNMIVKSCKCS

Legend:
[1] = tested on: LIF expression in GBM neurospheres; assay: LIF mRNA by qRT-PCR in GBM neurospheres; type: cell-based, human; settings: 100 pM, 3 hours, medium without serum
Experimental: FIG. 3. TGFβ induces the expression of LIF in PCTC and GBM neurospheres. (A) PCTC cells of the 11 samples of the indicated GEM (GBM1-11) were treated with 100 pM TGFβ1 for 3 hours in medium without serum or left untreated, and the expression levels of LIF were determined by means of qRT-PCR. The g-actin was determined as an internal normalization control. (B) GBM neurosphere cells were treated as in A and the expression levels of LIF were determined by means of qRT-PCR as in A. (C) GBM neurospheres were incubated with 100 pM TGFβ1 and/or 2 μM TβRI inhibitor for 3 hours in medium without serum and the mRNA levels of LIF were determined by means of qRT-PCR as in A. (D) GBM1 neurospheres were incubated with 100 pM TGFβ1, TGFβ2 and TGFβ3 for 3 hours in medium without serum and the mRNA levels of LIF were determined by means of qRT-PCR as in A. (E) The levels of LIF protein secreted were determined by means of ELISA in GBM1 neurospheres after 48 hours of treatment with 100 pM TGFβ1.
The U373MG and A172 cells were a generous gift from J. Rich and D. Bigner and were cultured in DMEM with 10% fetal bovine serum (FBS). The primary culture of tumor cells (PCTC) and the GBM neurospheres were generated as described (Bruna et al., (2007) Cancer Cell 11, 147-160; Gunther et al., (2008) Oncogene. May 1; 27(20):2897-909). Briefly, the samples of tumors were processed in the 30 minutes after the surgical resection. The ground pieces of the samples of human gliomas were digested with 200 U/ml collagenase I (Sigma) and 500 U/ml of DNase I (Sigma) in PBS for 2 hours at 37° C. and with constant vigorous stirring. The suspension of individual cells was filtered through a 70 μm cell filter (BD Falcon) and washed with PBS. Finally, the cells were resuspended and subsequently cultured in DMEM with 10% FBS, for the culture of PCTCs, or in neurosphere medium in the case of the GBM neurospheres. The neurospheres of normal human neuroprogenitors were generated from human embryonic cerebral cortex tissue (12-16 weeks after the conception) collected after voluntary abortions. The samples were processed and cultured as described (Poltavtseva et al. (2002) Brain Res Dev Brain Res 134, 149-154). The neurosphere medium consists of neurobasal medium (Gibco) supplemented with B27 (Gibco), L-glutamine (Gibco), penicillin/streptomycin, and growth factors (20 ng/mL EGF and 20 ng/mL FGF-2 (Peprotech)).
(§1) qRT-PCR was performed using Taqman probes from Applied Biosystems, according to the manufacturer's recommendations. The reactions were carried out in a ABI 7000 sequence detector (Perkin Elmer) and the results were expressed as the fold change calculated by means of the DDCt method relative to the control sample or the first quantified sample. The ribosomal unit of 18S or β-actin were used as internal normalization controls.
It was decided to investigate the molecular mechanisms responsible for the effect of TGFβ on GICs. Gene responses to TGFβ in GBM cells which could be involved in the regulation of the self-renewal of GICs were investigated. In a previous work (Bruna et al., 2007), transcriptome analyses were conducted in the U373MG glioma cell line treated with TGFβ and/or a TβRI inhibitor. LIF was among the 63 gene responses to TGFβ in U373MG which were dependent on the activity of TβRI. […] A panel of PCTCs derived from 11 different human GBMs was treated with TGFβ for 3 hours and the levels of LIF mRNA were determined.

GBM neurospheres = assay: Differentiation of GBM neurospheres (neuroprogenitor markers, adhesion); type: cell-based, human; settings: GBM1 neurospheres, 7 days without EGF or FGF, 100 pM TGFβ1 or 20 ng/ml LIF
Experimental: FIG. 7. TGFβ and LIF prevent the differentiation of GBM neurospheres. (A) Immunocytochemistry of the indicated proteins was performed in neurospheres derived from GBM1 treated with 100 pM TGFβ1 or 20 ng/ml LIF for 7 days in the absence of growth factors and the last 3 days on slides coated with poly-L-lysine. (B) The mRNA levels of Musashi-1 (Msi-1), Sox2 and Nestin were determined in GBM1 neurospheres after 7 days of the indicated treatments without growth factors. The RNA levels of 18S were used as an internal normalization control.
The immunocytochemistry of neurospheres and differentiated neurospheres was performed as described (Geshwind et al., 2001) using the following antibodies: anti-nestin (Chemicon), anti-GFAP (Dako), anti-TuJ1 (Chemicon), anti-04 (Chemicon), anti-Sox2 (Chemicon), anti-α-tubulin (Sigma). The nuclei were counterstained with 4′,6-diamino-2-phenylindole (DAPI).
as §1
The neurospheres derived from GBMs grown in the absence of growth factors and seeded in poly-L-lysine-coated plates tend to differentiate losing the expression of the neuroprogenitor markers Musashi-1, Sox2 and Nestin, and being adhered to the culture plate. It was decided to evaluate the effect of TGFβ and LIF on this differentiation process. The neurospheres were cultured in the presence of TGFβ or LIF without EGF or FGF for 7 days and subsequently processed for immunohistochemical staining and qRT-PCR assays for determining the levels of the neuroprogenitor markers Musashi-1, Sox2 and Nestin.

[2] = tested on: LIF expression in normal human neuroprogenitors; assay: LIF mRNA in neurospheres of normal human neuroprogenitors; type: cell-based; settings: 100 pM, 3 hours, compared with GBM neurospheres
Experimental: FIG. 8. Effect of TGFβ on the capacity of self-renewal of normal human neuroprogenitors. (A) Immunocytochemistry of the indicated markers was performed in human neuroprogenitor neurospheres. (B) Neurospheres of the sample of GBM1 and of human neuroprogenitors were incubated with the indicated members of the 100 pM TGFβ family for 3 hours and the mRNA levels of LIF were determined. (C, D) Neurosphere cells of normal human neuroprogenitors were incubated in the same conditions that have been described above in FIG. 1D in the presence of 100 pM TGFβ1 or 20 ng/ml LIF for 7 days and the number of newly formed neurospheres (C) and the number total of cells (D) were determined.
The U373MG and A172 cells were a generous gift from J. Rich and D. Bigner and were cultured in DMEM with 10% fetal bovine serum (FBS). The primary culture of tumor cells (PCTC) and the GBM neurospheres were generated as described (Bruna et al., (2007) Cancer Cell 11, 147-160; Gunther et al., (2008) Oncogene. May 1; 27(20):2897-909). Briefly, the samples of tumors were processed in the 30 minutes after the surgical resection. The ground pieces of the samples of human gliomas were digested with 200 U/ml collagenase I (Sigma) and 500 U/ml of DNase I (Sigma) in PBS for 2 hours at 37° C. and with constant vigorous stirring. The suspension of individual cells was filtered through a 70 μm cell filter (BD Falcon) and washed with PBS. […]
as §1, with “The ribosomal unit of 18S or β-actin were used as internal normalization controls.” left out
It was decided to assess whether this effect was specific to tumor cells or was also present in normal neuroprogenitor cells. […] First, it was determined if TGFβ induced LIF in normal human neuroprogenitors. […]

Molecule	LIF transcript in neurospheres derived from patients [1]	expression of Musashi-1, Sox2 and Nestin (immunocytochemistry, qRT-PCR) (GBM neurospheres)	induction of LIF mRNA in normal human neuroprogenitor neurospheres [2]
B1	capable of inducing LIF	maintained the expression	did not induce LIF
B2	capable of inducing LIF	–	did not induce LIF
